Experimental data taken from patent US20230235013A1 (MABSOLVE, published 2023).
Numbering of substitutions follows the chain as printed. Names and notes keep the numbering of the source.

B1: anti-CD20 human IgG1 L234D/L235T/G236R (antibody)
heavy: QVQLQQPGAELVKPGASVKMSCKASGYTFTSYNMHWVKQTPGRGLEWIGAIYPGNGDTSYNQKFKGKATLTADKSSSTAYMQLSSLTSEDSAVYYCARSTYYGGDWYFNVWGAGTTVTVSSASTKGPSVFPLAPSSKSTSGGTAALGCLVKDYFPEPVTVSWNSGALTSGVHTFPAVLQSSGLYSLSSVVTVPSSSLGTQTYICNVNHKPSNTKVDKKVEPKSCDKTHTCPPCPAPEDTRGPSVFLFPPKPKDTLMISRTPEVTCVVVDVSHEDPEVKFNWYVDGVEVHNAKTKPREEQYNSTYRVVSVLTVLHQDWLNGKEYKCKVSNKALPAPIEKTISKAKGQPREPQVYTLPPSRDELTKNQVSLTCLVKGFYPSDIAVEWESNGQPENNYKTTPPVLDSDGSFFLYSKLTVDKSRWQQGNVFSCSVMHEALHNHYTQKSLSLSPGK
light: QIVLSQSPAILSASPGEKVTMTCRASSSVSYIHWFQQKPGSSPKPWIYATSNLASGVPVRFSGSGSGTSYSLTISRVEAEDAATYYCQQWTSNPPTFGGGTKLEIKRTVAAPSVFIFPPSDEQLKSGTASVVCLLNNFYPREAKVQWKVDNALQSGNSQESVTEQDSKDSTYSLSSTLTLSKADYEKHKVYACEVTHQGLSSPVTKSFNRGEC
notes: also called 2-11; 1-30
B2: anti-CD20 human IgG1 L234G/L235Q/G236R (antibody)
heavy: B1 heavy with D238G, T239Q
light: B1 light
notes: also called 2-18; 1-57
B3: anti-CD20 human IgG1 L234S/G236R (antibody)
heavy: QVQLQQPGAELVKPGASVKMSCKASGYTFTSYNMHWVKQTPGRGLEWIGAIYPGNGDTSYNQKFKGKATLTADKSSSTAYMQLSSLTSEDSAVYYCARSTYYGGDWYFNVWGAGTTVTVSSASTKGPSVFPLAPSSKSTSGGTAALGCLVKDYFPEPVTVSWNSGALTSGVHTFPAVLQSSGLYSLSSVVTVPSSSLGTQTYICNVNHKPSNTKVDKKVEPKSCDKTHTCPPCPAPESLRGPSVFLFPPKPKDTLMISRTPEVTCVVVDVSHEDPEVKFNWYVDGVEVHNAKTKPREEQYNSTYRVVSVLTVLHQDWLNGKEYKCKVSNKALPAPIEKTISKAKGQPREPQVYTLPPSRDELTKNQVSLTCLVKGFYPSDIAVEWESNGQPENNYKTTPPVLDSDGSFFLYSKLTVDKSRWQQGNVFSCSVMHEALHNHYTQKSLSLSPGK
light: B1 light
notes: also called 2-50
B4: anti-CD20 human IgG1 L234G/L235H/G236R (antibody)
heavy: B1 heavy with D238G, T239H
light: B1 light
notes: also called 2-17; 1-51
B5: anti-CD20 human IgG1 L234S/L235E/G236R (antibody)
heavy: B1 heavy with D238S, T239E
light: B1 light
notes: also called 2-46
B6: anti-CD20 human IgG1 L234K/L235T/G236R (antibody)
heavy: B1 heavy with D238K
light: B1 light
notes: also called 2-25; 1-90
B7: anti-CD20 human IgG1 L234Q/L235H/G236R (antibody)
heavy: B1 heavy with D238Q, T239H
light: B1 light
notes: also called 2-29
B8: anti-CD20 human IgG1 L234E/L235D/G236R (antibody)
heavy: B1 heavy with D238E, T239D
light: B1 light
notes: also called 2-12; 1-33
B9: anti-CD20 human IgG1 L234S/L235I/G236R (antibody)
heavy: B1 heavy with D238S, T239I
light: B1 light
notes: also called 2-49
B10: anti-CD20 human IgG1 L234Q/L235R/G236R (antibody)
heavy: B1 heavy with D238Q, T239R
light: B1 light
notes: also called 2-32
B11: anti-CD20 human IgG1 L234H/L235I/G236R (antibody)
heavy: B1 heavy with D238H, T239I
light: B1 light
notes: also called 2-20; 1-67
B12: anti-CD20 human IgG1 L234T/L235A/G236R (antibody)
heavy: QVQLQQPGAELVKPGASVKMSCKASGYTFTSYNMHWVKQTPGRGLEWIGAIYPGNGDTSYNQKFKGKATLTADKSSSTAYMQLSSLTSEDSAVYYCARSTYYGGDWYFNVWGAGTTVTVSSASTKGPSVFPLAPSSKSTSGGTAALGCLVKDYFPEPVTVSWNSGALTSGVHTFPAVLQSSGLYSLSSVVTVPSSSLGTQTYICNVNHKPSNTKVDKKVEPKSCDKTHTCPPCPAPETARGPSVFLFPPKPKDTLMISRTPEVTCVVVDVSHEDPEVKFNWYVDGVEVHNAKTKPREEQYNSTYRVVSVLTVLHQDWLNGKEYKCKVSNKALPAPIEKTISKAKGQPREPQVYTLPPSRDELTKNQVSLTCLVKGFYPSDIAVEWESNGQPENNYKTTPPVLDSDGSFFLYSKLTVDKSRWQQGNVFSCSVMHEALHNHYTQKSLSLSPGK
light: B1 light
notes: also called 2-54; 1-152
B13: anti-CD20 human IgG1 L234E/L235V/G236R (antibody)
heavy: B1 heavy with D238E, T239V
light: B1 light
notes: also called 2-16; 1-46
B14: anti-CD20 human IgG1 L234T/L235I/G236R (antibody)
heavy: B1 heavy with D238T, T239I
light: B1 light
notes: also called 2-57; 1-157
B15: anti-CD20 human IgG1 L234E/L235H/G236R (antibody)
heavy: B1 heavy with D238E, T239H
light: B1 light
notes: also called 2-13; 1-36
B16: anti-CD20 human IgG1 L234E/L235I/G236R (antibody)
heavy: B1 heavy with D238E, T239I
light: B1 light
notes: also called 2-14; 1-37
B17: anti-CD20 human IgG1 L234Q/G236R (antibody)
heavy: not shown
light: B1 light
notes: also called 2-30
B18: anti-CD20 human IgG1 L234Q/L235D/G236R (antibody)
heavy: B1 heavy with D238Q, T239D
light: B1 light
notes: also called 2-28
B19: anti-CD20 human IgG1 L234T/L235D/G236R (antibody)
heavy: B1 heavy with D238T, T239D
light: B1 light
notes: also called 2-55
B20: anti-CD20 human IgG1 L234R/L235D/G236R (antibody)
heavy: B1 heavy with D238R, T239D
light: B1 light

The binders below were run against T1, Histidine-tagged recombinant human FcγRI (CD64) (human, UniProt P12314 16-288, limits assumed) (assay: SPR, His-FcγRI captured; mean;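 also: biacore T200 SPR at 25 °C, anti-His surface capturing FcγRI, Fc-variant antibodies injected at 100 µg/mL for 1 min, signal near injection end minus third buffer blank, three repeats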).
T1 construct: bought
Description: Binding analysis was carried out by surface plasmon resonance at 25° C. using a Biacore® T200 instrument with Biacore® T200 control software. The sample compartment was held at 5° C. The running buffer (HBS-EP+) consisted of 0.01 M HEPES pH 7.4, containing 0.15 M NaCl, 3 mM EDTA, and 0.05% v/v Surfactant P20. Methods were run using the manufacturer's standard method wizards as described in the Biacore® T200 Instrument Handbook.
The cell was activated by treatment with EDC/NHS for 7 min. The antibody was diluted to 10 μg/mL in 10 mM sodium acetate pH 5.0 and injected for 7 min at 5 μL/min. The flow cell was deactivated by injection of 1M ethanolamine for 7 min. This process was repeated in the absence of anti-his antibody on a separate flow cell to generate a reference surface. […] Samples of purified antibodies comprising variant Fc regions (1 mg/mL in PBS) were diluted with running buffer to 100 μg/mL and were injected for 1 min at 30 μL/min and allowed to disassociate for 2 min. Between each cycle, the chip was regenerated by injection of 10 mM glycine pH 3.0 for 0.5 min at a flow rate of 30 μL/min and recharged with a fresh injection of FcγRI. At the beginning of each experiment, three blank cycles were run, with buffer alone being injected instead of test sample. The average SPR signal (relative to the reference cell) was measured in a window approximately 8 to 13 seconds before the injection of test sample (baseline) and approximately 3 to 8 seconds before the end of injection (response). The response of the third of the blank (buffer) samples was subtracted from the response of each test sample in order to allow for any dissociation of the bound FcγRI giving a corrected response for each test sample. The whole experiment was repeated three times with the test samples being analysed in different orders each time.

| Corrected response (RU), Mean | Binder |
| --- | --- |
| 4.3 RU | B1 |
| 5.3 RU | B2 |
| 28.7 RU | B3 |
| 10.1 RU | B4 |
| 5.3 RU | B5 |
| -0.6 RU | B6 |
| 5.7 RU | B7 |
| 12.3 RU | B8 |
| 4.8 RU | B9 |
| 3.9 RU | B10 |
| 15.6 RU | B11 |
| 5.4 RU | B12 |
| 5.9 RU | B13 |
| 16.2 RU | B14 |
| 5.1 RU | B15 |
| 10.4 RU | B16 |
| 39.3 RU | B17 |
| 3.8 RU | B18 |
| 32.4 RU | B19 |
| 1.8 RU | B20 |

Each binder was assayed against T1, Histidine-tagged recombinant human … (assay: SPR, His-FcγRI captured; Expt 1;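 also: SPR at 25 °C on anti-His antibody chip capturing FcγRI, Fc-variant antibodies injected at 100 µg/mL for 1 min, signal near end of injection minus buffer blank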).

| Corrected response (RU) | Binder |
| --- | --- |
| 3 RU | B1 |
| 4.4 RU | B2 |
| 33.7 RU | B3 |
| 1.8 RU | B4 |
| 3.7 RU | B5 |
| -1.8 RU | B6 |
| 2.2 RU | B7 |
| 15.1 RU | B8 |
| 3.9 RU | B9 |
| -0.2 RU | B10 |
| 13.1 RU | B11 |
| 4.3 RU | B12 |
| 4.8 RU | B13 |
| 7.2 RU | B14 |
| 4.6 RU | B15 |
| 11.6 RU | B16 |
| 41.9 RU | B17 |
| 4.3 RU | B18 |
| 6 RU | B19 |
| 0.4 RU | B20 |

These binders were tested against T1, Histidine-tagged recombinant human … (assay: SPR, His-FcγRI captured; Expt 2;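 also: biacore T200 SPR at 25 °C, Fc-variant antibodies at 100 µg/mL flowed 1 min over anti-His-captured receptor, signal read near injection end minus third buffer blank; antibody analyte injected at 100 µg/mL for 1 min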).

| Corrected response (RU) | Binder |
| --- | --- |
| 4.3 RU | B1 |
| 5.2 RU | B2 |
| 21.6 RU | B3 |
| 4.2 RU | B4 |
| 5.3 RU | B5 |
| -1 RU | B6 |
| 6.7 RU | B7 |
| 9.4 RU | B8 |
| 4.2 RU | B9 |
| 2.6 RU | B10 |
| 10.9 RU | B11 |
| 4.8 RU | B12 |
| 5.5 RU | B13 |
| 17.3 RU | B14 |
| 4.5 RU | B15 |
| 8.1 RU | B16 |
| 27 RU | B17 |
| 2.7 RU | B18 |
| 28.9 RU | B19 |
| 0.9 RU | B20 |

Each binder was assayed against T1, Histidine-tagged recombinant human … (assay: SPR, His-FcγRI captured; Expt 3;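 also: biacore T200 SPR at 25 °C, Fc-variant antibodies at 100 µg/mL flowed 1 min over anti-His-captured FcγRI, signal taken just before injection end minus a buffer blank cycle; antibody analyte injected at 100 µg/mL for 1 min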).

| Corrected response (RU) | Binder |
| --- | --- |
| 5.5 RU | B1 |
| 6.1 RU | B2 |
| 30.9 RU | B3 |
| 24.4 RU | B4 |
| 6.9 RU | B5 |
| 1.1 RU | B6 |
| 8.1 RU | B7 |
| 12.3 RU | B8 |
| 6.4 RU | B9 |
| 9.4 RU | B10 |
| 22.8 RU | B11 |
| 7.2 RU | B12 |
| 7.4 RU | B13 |
| 24.2 RU | B14 |
| 6.2 RU | B15 |
| 11.7 RU | B16 |
| 49 RU | B17 |
| 4.4 RU | B18 |
| 62.3 RU | B19 |
| 4.2 RU | B20 |
